Data as given in US20050214822A1 (RUTGERS THE STATE UNIVERSITY OF NEW JERSEY, published 2005).

Target: T1, tau (rat, UniProt P19332-5 2-432, limits assumed)
T1 construct: Cytoskeletal protein used as a specificity control in the cypin immunoprecipitates
Assay: immunoprecipitation from rat brain extract with polyclonal anti-cypin antibody
Description: Cypin contains a region of homology to CRMP that binds directly to tubulin heterodimers (Akum et al., Nature Neurosci. 7:145 (2004)). To establish that cypin binds to tubulin, affinity chromatography was performed using a GST fusion of rat cypin immobilized on glutathione beads incubated with rat brain extract. The eluate was then assayed for the presence of tubulin. […] To assess whether this interaction occurs in vivo, rat brain extract was subjected to immunoprecipitation with preimmune serum or polyclonal antibody raised against cypin. Tubulin was found in the cypin immunoprecipitates (Id.). Very little tubulin was present when preimmune serum is used, representing nonspecific binding (Id.). Furthermore, no tau was detected in the cypin immunoprecipitates, supporting the idea that cypin binds specifically to tubulin and not all cytoskeletal proteins (Id.). In addition, cypin was found in tubulin immunoprecipitates.

T1 sequence (P19332 other isoform, or with tags, fused parts or gaps limits assumed): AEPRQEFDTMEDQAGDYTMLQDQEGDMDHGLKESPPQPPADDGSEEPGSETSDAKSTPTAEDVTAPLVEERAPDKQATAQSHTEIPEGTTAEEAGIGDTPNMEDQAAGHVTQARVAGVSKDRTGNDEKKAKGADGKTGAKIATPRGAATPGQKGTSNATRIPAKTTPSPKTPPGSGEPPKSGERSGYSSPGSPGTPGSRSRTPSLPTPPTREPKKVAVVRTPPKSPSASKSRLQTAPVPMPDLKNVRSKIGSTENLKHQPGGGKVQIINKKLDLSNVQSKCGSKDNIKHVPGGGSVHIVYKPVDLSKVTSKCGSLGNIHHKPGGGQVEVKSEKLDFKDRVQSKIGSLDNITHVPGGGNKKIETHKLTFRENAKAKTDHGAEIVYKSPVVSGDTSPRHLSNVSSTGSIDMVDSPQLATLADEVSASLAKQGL

binding result: no binding
B1: cypin in rat brain extract (enzyme)
chain: MCAARTPQLALIFRGTFVHSTWTCPMEVLRDHLLGVSDSGKIVFLEESSQQEKLAKEWCFKPCEIRELSHHEFFMPGLVDTHIHAPQYAFAGSNVDLPLLDWLNKYTFPTEKRFQSTDVAEEVYTRVVRRTLKNGTTTACYFGTIHTDSSLILAEITDKFGQRAFVGKVCMDLNNTVPEYKETTEESVKETERFVSEMLQKNYSRVKPIVTPRFSLSCTETLMSELGNIAKTHDLYIQSHISENREEIEAVKSLYPGYKNYTDVYDKNNLLTNKTVMAHGCYLSEEELNVFSERGASIAHCPNSNLSLSSGLLNVLDVLKHKVKIGLGTDVAGGYSYSMLDAIRRAVMVSNVLLINKVNEKSLTLKEVFRLATLGGSQALGLDREIGNFEVGKDFDALLINPRASDSPIDLFCGDFVGDISEAVIQKFLYLGDDRNIEEVYVGGKQVVPFSSSV
notes: Endogenous cypin immunoprecipitated from rat brain extract with a polyclonal antibody raised against cypin; also called endogenous cypin
